According to patent publication US6673571B2, “Polypeptides having aminopeptidase activity and nucleic acids encoding same” (Novozymes Biotech, Inc., priority 1997, dated 2004):

Experiments:
[1] = Isoelectric point by activity staining method; assay type: physicochemical; conditions: freshly prepared enzyme
Excerpt: The isoelectric point of the aminopeptidase is variable since the isoelectric point of the freshly prepared enzyme is estimated as 8.4 using an activity staining method, however, the isoelectric point varies from 7.4 to 8.5 during the course of purification and/or storage. The uncertainty of the isoelectric point may be due to the self digestion of the aminopeptidase from its amino terminal.

[2] = Specific activity in alanyl-aminopeptidase units (AAU); assay type: biochemical; conditions: Ala-pNa, pH 7.5, 22° C.
Description: The aminopeptidase I dosages used were based on alanyl-aminopeptidase units (AAU) determined by the hydrolysis of Ala-pNa at pH 7.5. One AAU unit of the aminopeptidase I is defined as the quantity of an enzyme which hydrolyses 1.0 micromole of Ala-pNa per minute in a 9.1 mM solution of Ala-pNa at pH 7.5, 22° C., and ionic strength=0.05.
The specific activity of the purified aminopeptidase I was approximately 12 AAU/mg enzyme. Therefore, a dosage of 0.24 AAU per 200 mg soy protein, for example, corresponded to 0.1 g enzyme per kg soy protein.

[3] = tested on: soy protein; experiment: Release of free amino acids (FAA) in soy protein hydrolysis; assay type: biochemical, soy bean
Description: Hydrolysis was carried out on a 10 ml scale at 50° C. for 18 hours. The initial pH was 7 with no pH readjustment during hydrolysis. Inactivation of the enzyme was carried out at 85° C. for 3 minutes in a water bath. The substrate concentration was 2% protein from soy bean meal. The substrate was heat treated in a water bath at 85° C. for 3 minutes. The enzymes used with FLAVOURZYME 1000L™ and ALCALASE 2.4L® described above were crude Sphingomonas capsulata aminopeptidase I powder (see Example 1) and the purified Sphingomonas capsulata aminopeptidase I described in Example 4.
Hyp, methioninsulphonic acid, and Trp were not included in the Table due to very fluctuating and uncertain results.

[4] = tested on: gelatin; experiment: Degree of hydrolysis (DH) in gelatin hydrolysis, OPA method; assay type: biochemical; conditions: 50° C., 18 hours
Description: The aminopeptidase I was added in increased dosage to either a low or a high background of FLAVOURZYME™ and ALCALASE® as performed in Example 7.
Hydrolysis was carried out in 200 μl reactions in Eppendorf tubes. The substrate gelatin (Merck) was dissolved in distilled water at 85° C. for 5 minutes. After cooling to 50° C., the pH was adjusted to 6.5. The final gelatin concentration was adjusted to 2% after the addition of enzymes. The substrate concentration in each reaction was calculated to be 4 mg.
The hydrolysis reactions were performed at 50° C. for 18 hours. Enzymes were inactivated at 85° C. for 5 minutes followed by centrifugation. DH was calculated on the basis of the total protein content of hydrolysate using the OPA method.

[5] = Substrate specificity: initial rates of hydrolysis of para-nitroanilides; assay type: biochemical; conditions: Gly-Phe-pNA versus Ala-Ala-pNA
[6] = pH optimum / pH profile with Ala-pNA; assay type: biochemical
[7] = 1.5% FLAVOURZYME +67 kDa AP versus 6.0% FLAVOURZYME

B1: Sphingomonas capsulata aminopeptidase I: purified aminopeptidase of 67 kDa from Sphingomonas capsulata IFO 12533; deduced amino acid sequence SEQ ID NO:2 (protein)
chain: MRKTPQGIGLLSALSTSTLALATLILAQPALAQVQPASNSRPMAVPIAHGVPDAQDVPYPGTIGLQIDATDLATGAFRVVETVPVAADAKELILQLPAWLPGEHGNRGPVAELAGITFEAKGQKLAWTRDPVEVNAFHIPLPAGTSEVVARFIHTSPLRDSEGRITVTREMLNVQWEKMSLYPAGHYVRQIKVRPTVSFPQGWTVFTALDGKTQSGAGNTVTWAETDYETLVDSPIFAGLYAARHDLGHNVYFDLVADKPELLAIKPENLAAYRNLADEAVGAFGARHFDHYDFLLALTDRMGSIGLEHHRSSENQQEPKSLTDWAAYDWDRNVIAHEFSHSWDGKYRRSAKLWTPDYRQPMQDNLLWVYEGQTQFWGLVLAARSGVQSKDVVLGSLANYAGTFTQTAGRDWRSVEDTTMDPIFAARKPKPYSSLTRNEDYYTEGALVWLEADQIIRDGTGGKKGLDDFAKAFFGVRDGDWGVLTYEFDDVVKTLNGVYPYDWATFLKTRLQTPGQPVPLGGIERGGYKLEFKDEPNPYDKARMADAKVLSLFNSLGVTLDKDGKVTASRWDGPAFKAGLVSGMQVMAVNGDAYDADKLKGAITNAKTGNPGAGRPIELLVKRDDRFVTLPITYADGLRWPWLVRTAPGTAPTGLDKLLAPHASKLPVGKAAK
- isoelectric point [1]: ~8.4
- specific activity [2]: approximately 12 AAU/mg enzyme
- % Relative increase in FAA: Ala ([3]; 1.5% FLAVOURZYME +67 kDa AP): 130.3%
- % Relative increase in FAA: Arg ([3]; 1.5% FLAVOURZYME +67 kDa AP): 37.4%
- % Relative increase in FAA: Asn ([3]; 1.5% FLAVOURZYME +67 kDa AP): 32.3%
- % Relative increase in FAA: Asp ([3]; 1.5% FLAVOURZYME +67 kDa AP): 164.5%
- % Relative increase in FAA: Cys ([3]; 1.5% FLAVOURZYME +67 kDa AP): 12.6%
- % Relative increase in FAA: Gln ([3]; 1.5% FLAVOURZYME +67 kDa AP): 138.9%
- % Relative increase in FAA: Glu ([3]; 1.5% FLAVOURZYME +67 kDa AP): 145.9%
- % Relative increase in FAA: Gly ([3]; 1.5% FLAVOURZYME +67 kDa AP): 305.7%
- % Relative increase in FAA: His ([3]; 1.5% FLAVOURZYME +67 kDa AP): 30.3%
- % Relative increase in FAA: Ile ([3]; 1.5% FLAVOURZYME +67 kDa AP): 48.7%
- % Relative increase in FAA: Leu ([3]; 1.5% FLAVOURZYME +67 kDa AP): 35.2%
- % Relative increase in FAA: Lys ([3]; 1.5% FLAVOURZYME +67 kDa AP): 62.4%
- % Relative increase in FAA: Met ([3]; 1.5% FLAVOURZYME +67 kDa AP): −20.0%
- % Relative increase in FAA: Phe ([3]; 1.5% FLAVOURZYME +67 kDa AP): 41.8%
- % Relative increase in FAA: Pro ([3]; 1.5% FLAVOURZYME +67 kDa AP): 32.4%
- % Relative increase in FAA: Ser ([3]; 1.5% FLAVOURZYME +67 kDa AP): 69.3%
- % Relative increase in FAA: Thr ([3]; 1.5% FLAVOURZYME +67 kDa AP): 34.7%
- % Relative increase in FAA: Tyr ([3]; 1.5% FLAVOURZYME +67 kDa AP): 47.6%
- % Relative increase in FAA: Val ([3]; 1.5% FLAVOURZYME +67 kDa AP): 44.0%
- % Relative increase in FAA: total ([3]; 1.5% FLAVOURZYME +67 kDa AP): 64.5%
- % Relative increase in FAA: Ala [3, 7]: 27.3%
- % Relative increase in FAA: Arg [3, 7]: −2.9%
- % Relative increase in FAA: Asn [3, 7]: −15.2%
- % Relative increase in FAA: Asp [3, 7]: 24.2%
- % Relative increase in FAA: Cys [3, 7]: 6.3%
- % Relative increase in FAA: Gln [3, 7]: 9.9%
- % Relative increase in FAA: Glu [3, 7]: 28.7%
- % Relative increase in FAA: Gly [3, 7]: 90.6%
- % Relative increase in FAA: His [3, 7]: −6.8%
- % Relative increase in FAA: Ile [3, 7]: −21.0%
- % Relative increase in FAA: Leu [3, 7]: −9.1%
- % Relative increase in FAA: Lys [3, 7]: −1.4%
- % Relative increase in FAA: Met [3, 7]: −46.7%
- % Relative increase in FAA: Phe [3, 7]: −4.5%
- % Relative increase in FAA: Pro [3, 7]: −39.7%
- % Relative increase in FAA: Ser [3, 7]: 12.5%
- % Relative increase in FAA: Thr [3, 7]: −18.3%
- % Relative increase in FAA: Tyr [3, 7]: −6.9%
- % Relative increase in FAA: Val [3, 7]: −17.7%
- % Relative increase in FAA: total [3, 7]: 0.0%
- % Relative increase in FAA: Ala ([3]; 6.0% FLAVOURZYME +67 kDa AP): 36.5%
- % Relative increase in FAA: Arg ([3]; 6.0% FLAVOURZYME +67 kDa AP): −31.4%
- % Relative increase in FAA: Asn ([3]; 6.0% FLAVOURZYME +67 kDa AP): 7.6%
- % Relative increase in FAA: Asp ([3]; 6.0% FLAVOURZYME +67 kDa AP): 24.8%
- % Relative increase in FAA: Cys ([3]; 6.0% FLAVOURZYME +67 kDa AP): 9.5%
- % Relative increase in FAA: Gln ([3]; 6.0% FLAVOURZYME +67 kDa AP): 28.1%
- % Relative increase in FAA: Glu ([3]; 6.0% FLAVOURZYME +67 kDa AP): 31.3%
- % Relative increase in FAA: Gly ([3]; 6.0% FLAVOURZYME +67 kDa AP): 92.9%
- % Relative increase in FAA: His ([3]; 6.0% FLAVOURZYME +67 kDa AP): 7.5%
- % Relative increase in FAA: Ile ([3]; 6.0% FLAVOURZYME +67 kDa AP): 7.2%
- % Relative increase in FAA: Leu ([3]; 6.0% FLAVOURZYME +67 kDa AP): 5.2%
- % Relative increase in FAA: Lys ([3]; 6.0% FLAVOURZYME +67 kDa AP): 13.8%
- % Relative increase in FAA: Met ([3]; 6.0% FLAVOURZYME +67 kDa AP): 21.1%
- % Relative increase in FAA: Phe ([3]; 6.0% FLAVOURZYME +67 kDa AP): 7.2%
- % Relative increase in FAA: Pro ([3]; 6.0% FLAVOURZYME +67 kDa AP): −11.5%
- % Relative increase in FAA: Ser ([3]; 6.0% FLAVOURZYME +67 kDa AP): 41.7%
- % Relative increase in FAA: Thr ([3]; 6.0% FLAVOURZYME +67 kDa AP): 2.4%
- % Relative increase in FAA: Tyr ([3]; 6.0% FLAVOURZYME +67 kDa AP): 8.5%
- % Relative increase in FAA: Val ([3]; 6.0% FLAVOURZYME +67 kDa AP): 6.3%
- % Relative increase in FAA: total ([3]; 6.0% FLAVOURZYME +67 kDa AP): 10.3%
- DH ([4]; 0.2 U/4 mg gelatin added to low FLAVOURZYME background (2%) + 1% ALCALASE, from DH 38%): 61%
- DH ([4]; added to 7% FLAVOURZYME + 1% ALCALASE): 61%
- hydrolysis of dipeptide substrates [5]: hydrolysed Gly-Phe-pNA more quickly than Ala-Ala-pNA
- Km ([6]; Ala-pNA, pH 7.5): 2500 µM
- kinetics of hydrolysis of Ala-pNA ([6]; pH 5.5, apparent Km and Vmax negative due to activation by substrate): did not follow Michaelis-Menten kinetics
